Earlier results, collected in PMC6615999.
pKd: −log10 of the molar value.

Target: PKR (Homo sapiens) (UniProt P19525)

For PKR (from UniProt P19525), the pKd is listed as 3.30.
